Reference: US20210317480

Key:
[1] = tested on: T1, G8PEX from Pseudomonas phage Pf1
T1 sequence: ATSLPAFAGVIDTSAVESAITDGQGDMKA

[2] = tested on: T2, G8PEX from bacteriophage f1
T2 sequence: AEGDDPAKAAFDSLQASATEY

[3] = tested on: T3, G8PEX ortholog peptide from L. monocytogenes (strain M7) bacteriophage M7
T3 sequence: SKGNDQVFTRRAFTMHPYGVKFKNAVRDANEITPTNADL

[4] = tested on: T4, G8PEX, extracellular region of the major coat protein G8P from bacteriophage M13
T4 sequence: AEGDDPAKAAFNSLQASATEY

[5] = tested on: T5, G8PEX from bacteriophage I2-2
T5 sequence: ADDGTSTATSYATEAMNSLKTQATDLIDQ

## Streptococcus pyogenes Cas9 nuclease (SpCas9)
[1]
  in vitro cleavage activity of SpCas9: could efficiently inhibit the cleavage activity of SpCas9 in vitro
[2]
  in vitro cleavage activity of SpCas9: could efficiently inhibit the cleavage activity of SpCas9 in vitro
[3]
  DNA cleavage activity of SpCas9: efficiently prohibited SpCas9 to bind to sgRNA (FIG. 7d) or cleave DNA substrate (FIG. 7e)
[4]
  in vitro DNA cleavage by pre-assembled Cas9 RNP: the activity of pre-assembled Cas9 RNP was not affected by G8PEX
  in vitro cleavage activity of SpCas9: could efficiently inhibit the cleavage activity of SpCas9 in vitro
[5]
  in vitro cleavage activity of SpCas9: could efficiently inhibit the cleavage activity of SpCas9 in vitro
